Experimental data: PMC3173608 (Structure(London, England:1993), 2011)

Target: the molecule itself
Assay: SEC

B1: CsgG_(16-277) (domain or fragment)
chain: CLTAPPKEAARPTLMPRAQSYKDLTHLPAPTGKIFVSVYNIQDETGQFKPYPASNFSTAVPQSATAMLVTALKDSRWFIPLERQGLQNLLNERKIIRAAQENGTVAINNRIPLQSLTAANIMVEGSIIGYESNVKSGGVGARYFGIGADTQYQLDQIAVNLRVVNVSTGEILSSVNTSKTILSYEVQAGVFRFIDYQRLLEGEVGYTSNEPVMLCLMSAIETGVIFLINDGIDRGLWDLQNKAERQNDILVKYRHMSVPPES
stoichiometry N: 8 protomers
